Laboratory results taken from patent US20230181754A1 (BRIGHT PEAK THERAPEUTICS, published 2023).

Assays:
[1] = target: T1, recombinant biotinylated human Fc gamma receptor IIa (FcγRIIa/CD32a 167H) (human, UniProt P12318 36-218, limits assumed, biotinylated); assay: AlphaLISA competition: free antibody competes with human IgG Fc on acceptor beads for biotinylated human FcγRIIa on streptavidin donor beads
T1 sequence (looked up): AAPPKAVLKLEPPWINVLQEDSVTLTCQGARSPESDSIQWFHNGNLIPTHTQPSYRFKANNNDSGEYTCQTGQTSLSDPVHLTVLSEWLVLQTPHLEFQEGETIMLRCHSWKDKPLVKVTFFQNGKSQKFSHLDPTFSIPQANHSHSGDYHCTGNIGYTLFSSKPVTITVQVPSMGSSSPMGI

[2] = target: T2, recombinant biotinylated human Fc gamma receptor I (FcγRI/CD64) (human, UniProt P12314 16-288, limits assumed, biotinylated); assay: AlphaLISA competition: free antibody competes with human IgG Fc on acceptor beads for biotinylated human FcγRI on streptavidin donor beads
T2 construct: also called FcγR1
T2 sequence (P12314 16-288 limits assumed): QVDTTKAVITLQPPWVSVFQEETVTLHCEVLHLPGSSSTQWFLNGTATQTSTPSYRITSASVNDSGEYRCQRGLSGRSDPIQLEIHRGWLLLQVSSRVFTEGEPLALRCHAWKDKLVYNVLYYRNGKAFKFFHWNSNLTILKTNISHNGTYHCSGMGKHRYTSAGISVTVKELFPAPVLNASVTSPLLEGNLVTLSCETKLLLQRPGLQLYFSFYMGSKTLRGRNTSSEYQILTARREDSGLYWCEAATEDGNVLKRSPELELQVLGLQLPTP

- IC50 (read off the curve) [1]: ~400 nM
- binding result [2]: binds
B1: Durvalumab (unmodified anti-PD-L1 antibody) (antibody, human IgG1, kappa)
heavy: EVQLVESGGGLVQPGGSLRLSCAASGFTFSRYWMSWVRQAPGKGLEWVANIKQDGSEKYYVDSVKGRFTISRDNAKNSLYLQMNSLRAEDTAVYYCAREGGWFGELAFDYWGQGTLVTVSSASTKGPSVFPLAPSSKSTSGGTAALGCLVKDYFPEPVTVSWNSGALTSGVHTFPAVLQSSGLYSLSSVVTVPSSSLGTQTYICNVNHKPSNTKVDKRVEPKSCDKTHTCPPCPAPEFEGGPSVFLFPPKPKDTLMISRTPEVTCVVVDVSHEDPEVKFNWYVDGVEVHNAKTKPREEQYNSTYRVVSVLTVLHQDWLNGKEYKCKVSNKALPASIEKTISKAKGQPREPQVYTLPPSREEMTKNQVSLTCLVKGFYPSDIAVEWESNGQPENNYKTTPPVLDSDGSFFLYSKLTVDKSRWQQGNVFSCSVMHEALHNHYTQKSLSLSPGK
light: EIVLTQSPGTLSLSPGERATLSCRASQRVSSSYLAWYQQKPGQAPRLLIYDASSRATGIPDRFSGSGSGTDFTLTISRLEPEDFAVYYCQQYGSLPWTFGQGTKVEIKRTVAAPSVFIFPPSDEQLKSGTASVVCLLNNFYPREAKVQWKVDNALQSGNSQESVTEQDSKDSTYSLSSTLTLSKADYEKHKVYACEVTHQGLSSPVTKSFNRGEC
notes: also called Imfinzi; MEDI-4736
